Entries after “also recorded” stand apart in the source; their conditions may differ.
How the values were obtained:
PKC-δ = PKC-δ (Homo sapiens, UniProt Q05655); assay: PKC activation assay with purified PKC-δ isozyme; assay type: biochemical
Experimental: For measurement of PKC activation by DCPLA-ME, activation of recombinant PKC-α, PKC-ε, and PKC-δ was evaluated. DCPLA-ME induced activation was measured in the absence of diacylglycerol (DAG) and phosphatidylserine (PS) as described earlier. See Nelson, T. J. et al., J. Biol. Chem., 2009, 284: 34514-34521, and Kanno, T. et al., J. Cell Physiol., 2009, 221: 183-188. Individual enzymes were incubated for 15 min at 37° C. in the presence of 10 μM histones, 4.89 mM CaCl2, 10 mM MgCl2, 20 mM HEPES (pH 7.4), 0.8 mM EDTA, 4 mM EGTA, 4% glycerol, 8 μg/ml aprotinin, 8 μg/ml leupeptin, 2 mM benzamidine, and 0.5 μCi of [γ-^32P]ATP. Purified PKC-α, PKC-ε and PKC-δ were preincubated with DCPLA-ME for 5 min at room temperature. [^32P]-Phosphoprotein formation was measured by adsorption onto phosphocellulose.
To measure PKC, 10 μl of cell homogenate or purified PKC isozyme was incubated for 15 min at 37° C. in the presence of 10 μM histones, 4.89 mM CaCl2, 1.2 μg/μl phosphatidyl-L-serine, 0.18 μg/μl 1,2-dioctanoyl-sn-glycerol, 10 mM MgCl2, 20 mM HEPES (pH 7.4), 0.8 mM EDTA, 4 mM EGTA, 4% glycerol, 8 μg/ml aprotinin, 8 μg/ml leupeptin, and 2 mM benzamidine. [γ32P]ATP (0.5 μCi) was added and 32P-phosphoprotein formation was measured by adsorption onto phosphocellulose as described previously. See Nelson et al., J. Neurochemistry, 1995, 65: 2350-2357. […]

[1] = tested on: primary human cortical neurons; assay: 40 day culture of human primary cortical neurons: survival, synapses, branching; assay type: cell-based; conditions: 100 nM
Experimental: To examine the effects of PKC-ε activation, cultured human cortical neurons in serum-free artificial medium were exposed to 100 nM DCPLA-ME added every three days, along with 50% medium replacement, for 40 days. More specifically, human primary cortical neurons were grown in Neuronal Medium (ScienCell Cat No#1521) containing neuronal growth supplement (NGS) (Sciencell Cat No#1562).
Cells were plated on poly-l-lysine (0.001%) coated plates at a density of >10000 cells/cm2. Half of the media was replaced by new media every 3 days. DCPLA-ME was dissolved in 100% ethanol and added at 100 nM final concentration. Fresh DCPLA-ME (100 nM) was added every 3 days during media change. The experiments were continued for 40 days.
Human primary neurons (ScienCell Research Laboratories, USA) were thawed and plated on poly-L-lysine coated plates at a density of 10,000 cells per cm^2 and were maintained in neuronal medium (DMEM+high glucose+neuronal growth supplement, ScienCell Research Laboratories, USA) following the recommended method. Primary human neurons were then treated with either DCPLA-ME (100 nM) or bryostatin 1 (0.27 nM) for 40 days. Fresh drug was added every third day with 50% media change.

[2] = tested on: rat primary hippocampal neurons; assay: Neurotoxic effect of Aβ1-42 oligomers, MTT viability assay; assay type: cell-based; conditions: 20 hr
Experimental: Amylospheroids (ASPDs) and Aβ monomers were prepared following Hoshi, M., et al. (2003) Proc Natl Acad Sci USA 100, 6370-6375, and Noguchi, A., et al. (2009) J Biol Chem 284, 32895-32905. Briefly, Aβ1-42 was dissolved in 1,1,1,3,3,3-hexafluoro-2-propanol and incubated overnight at 4° C. and then 3 hr at 37° C. The dissolved Aβ1-42 was then lyophilized in 1.5 ml polypropylene centrifuge tubes at 40 nmol/tube concentration. For preparing the ASPDs, the lyophilized Aβ was dissolved in phosphate buffered saline (PBS) without Ca^2+ or Mg^2+ at less than 50 μM concentration and rotated for 14 hr at 4° C. After incubation, the Aβ solution was purified using a 100 kDa molecular mass cutoff filter (Amicon Ultra, Millipore) and the high-molecular weight fraction was saved to obtain the most toxic ASPDs. Aβ derived diffusible ligands (ADDLs) were produced as previously described. See Lambert, M. P et al., Proc. Natl. Acad. Sci. USA, 1998, 95: 6448-6453. Briefly, Aβ1-42 was solubilized at 5 mM in dimethyl sulfoxide, diluted to 100 μM in F12k medium and was incubated at 4° C. for 24 hr. The solution was centrifuged at 14000×g for 10 min at 4° C. and the supernatant was used as the ADDLs.
Viability of cells was measured by MTT assay. MTT (i.e., 3-(4,5-dimethylthiazol-2-yl)-2,5-diphenyltetrazolium bromide) is a tetrazolium salt that is cleaved to formazan by the succinate dehydrogenase, which is only active in viable cells. After solubilization of the formazan, the amount of dye can be quantified with a microplate reader at 570 nm along with a reference of 630 nm. For the MTT assay, 5×10^4 primary rat hippocampal neurons from 18-day-old embryonic Sprague-Dawley rat brains or SH-SY5Y cells were plated on each well of 24-well plates coated with poly-D-lysine. After treatment, the cells were washed with 1× PBS and were incubated with 200 μl of 1 mg/ml MTT solution (Sigma, USA) at 37° C. for 2 hr. Then the MTT-solution was removed and the cells were lysed with 200 μl isopropanol containing 0.04 M HCl and […] for 10 min. Finally, the reading was taken at 570 nm and 630 nm. All the samples were done in triplicate and the data were represented as the percentage of control.
To assess the neurotoxic effect of different sized oligomers, rat primary hippocampal neurons were treated with variable concentrations of these Aβ1-42 species for 20 hr. Viability of the treated cells was compared to untreated cells using the MTT assay described above.

PKC-δ, sequence (Q05655 whole entry): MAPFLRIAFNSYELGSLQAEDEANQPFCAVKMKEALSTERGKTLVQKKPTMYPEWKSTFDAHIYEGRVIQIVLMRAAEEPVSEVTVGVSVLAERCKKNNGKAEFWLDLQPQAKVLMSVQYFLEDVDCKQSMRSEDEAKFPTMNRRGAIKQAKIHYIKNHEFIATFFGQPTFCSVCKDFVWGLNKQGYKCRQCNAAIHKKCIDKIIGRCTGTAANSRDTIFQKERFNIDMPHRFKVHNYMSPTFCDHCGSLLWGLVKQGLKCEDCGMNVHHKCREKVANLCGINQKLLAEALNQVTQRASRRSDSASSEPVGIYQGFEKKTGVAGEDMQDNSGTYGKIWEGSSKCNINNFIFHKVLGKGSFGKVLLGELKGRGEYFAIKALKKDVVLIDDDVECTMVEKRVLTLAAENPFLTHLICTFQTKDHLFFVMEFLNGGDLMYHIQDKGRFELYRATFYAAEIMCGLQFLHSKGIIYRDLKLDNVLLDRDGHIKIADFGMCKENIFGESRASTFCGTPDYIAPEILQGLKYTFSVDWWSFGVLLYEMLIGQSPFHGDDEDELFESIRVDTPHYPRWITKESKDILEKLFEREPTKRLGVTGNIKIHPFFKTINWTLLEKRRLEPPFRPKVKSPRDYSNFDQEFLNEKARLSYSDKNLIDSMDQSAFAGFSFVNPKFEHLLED

| Molecule | effect on PKC-δ (PKC-δ) | number of synapses ([1]; 30 day old neurons) | Expression levels of PKCε, PSD-95 and synaptophysin ([1]; 40 days, compared to control or bryostatin 1-treated cells) | Viability of primary neuron ([2]; 0.5 nM) | Viability of primary neuron ([2]; 1 nM) | Viability of primary neuron ([2]; 2 nM) | Viability of primary neuron ([2]; 5 nM) | Viability of primary neuron ([2]; 10 nM) | Viability of primary neuron ([2]; 50 nM) | Viability of primary neuron ([2]; 50 nM, listed as ASPDs) | Viability of primary neuron ([2]; 500 nM) |
| --- | --- | --- | --- | --- | --- | --- | --- | --- | --- | --- | --- |
| CCCCCC1CC1CC1CC1CCCCCCCC(=O)OC (centres unmarked) [DCPLA-ME, DCPLA methyl ester] | did not have a major effect; also recorded: less inhibitory effect | significantly increased | significantly higher |  |  |  |  |  |  |  |  |
| ASPD: Amylospheroids from Aβ1-42, 100 kDa filter retentate, containing 39 monomers on average |  |  |  | 96.12 ± 0.733 % of control | 89.64 ± 5.99 % of control | 87.75 ± 0.94 % of control | 70.95 ± 1.89 % of control | 68.68 ± 0.84 % of control | 57.55 ± 3.35 % of control | 57.1±4.9 % of control | 52.94 ± 3.75 % of control |
